Substrate in the data set: O=[N+]([O-])c1ccc(O[C@@H]2OC[C@@H](O)[C@H](O)[C@H]2O)cc1
Nature of the data set: purified protein. Particulars: free enzyme, partially purified, 200 mM citrate-phosphate-glycine buffer pH 6.5, 50 °C, 0.22–2.00 mM substrate. The format is biochemical, Geobacillus stearothermophilus.

B1: XynB2^Y509E (Geobacillus stearothermophilus; Y509E) (protein)
chain: MATNLFFNAHHSPVGAFASFTLGFPGKSGGLDLELARPPRQNVFIGVESPHEPGLYHILPFAETAGEDESKRYDIENPDPNPQKPNILIPFAKERIEREFRVATDTWKAGDLTLTIYSPVKAVPDPETASEEELKLALVPAVIVEMTIDNTNGTRTRRAFFGFEGTDPYTSMRRIDDTCPQLRGVGQGRILGIASKDEGVRSALHFSMEDILTATLEENWTFGLGKVGALIADVPAGEKKTYQFAVCFYRGGCVTAGMDASYFYTRFFHNIEEVGLYALEQAEVLKEQAFRSNELIEKEWLSDDQKFMMAHAIRSYYGNTQLLEHEGKPIWVVNEGEYRMMNTFDLTVDQLFFELKMNPWTVKNVLDFYVERYSYEDRVRFPGDETEYPGGISFTHDMGVANTFSRPHYSSYELYGISGCFSHMTHEQLVNWVLCAAVYIEQTKDWAWRDRRLTILEQCLESMVRRDHPDPEKRNGVMGLDSTRTMGGAEITTYDSLDVSLGQARNNLELAGKCWAAYVALEKLFRDVGKEELAALAREQAEKCAATIVSHVTEDGYIPAVMGEGNDSKIIPAIEGLVFPYFTNCHEALREDGRFGDYIRALRQHLQYVLREGICLFPDGGWKISSTSNNSWLSKIYLCQFIARRILGWEWDEQGKRADAAHVAWLTHPTLSIWSWSDQIIAGEISGSKYYPRGVTSILWLEEGE
notes: recombinant in E. coli C43 from plasmid pJAVI100 (xynB2 with Y509E); partially purified by heat treatment 45 °C and dialysis; GH52
Consider B1, for which the Km (in general, the concentration of substrate that gives half-maximal velocity) was found to be 0.9 ± 0.1 mM and the Vmax (in general, the top rate of the reaction or transport when substrate is in excess) was 0.0011 µmol/min.

Values taken from paper PMC10421103, “Efficiency Assessment between Entrapment and Covalent Bond Immobilization of Mutant β-Xylosidase onto Chitosan Support” (Polymers, 2023).
